One may read the stoichiometry N as the number of molecules, sites or subunits per partner or assembly.

The target in test [1] is AAVpo.6 capsid (porcine adeno-associated virus po.6; VP1, VP2 and VP3) (adeno-associated virus AAVpo.6 (isolated from porcine tissues)). In words: cryo-EM structure.
Test [2] has as its target AAVpo.1 capsid (porcine adeno-associated virus po.1; VP1, VP2 and VP3) (adeno-associated virus AAVpo.1 (isolated from porcine tissues)). The test can be described thus: cryo-EM structure.

“AAVpo.6 capsid (porcine adeno-associated virus po.6; VP1, VP2 and VP3) (complex)” yielded a stoichiometry N in test [1] of 60.

In test [2], “AAVpo.1 capsid (porcine adeno-associated virus po.1; VP1, VP2 and VP3) (complex)” gave a stoichiometry N of 60.

The record behind these values is article PMC12474171.
